The source of these data is the Human Domainome abundance scans (Beltran et al. 2025).

± gives the uncertainty stated by the source.

Sequences and labels used below:
B1: POU domain, class 3, transcription factor 3, residues 320 to 388; numbered along this chain, P20264 (parent)
chain: DDLEQFAKQFKQRRIKLGFTQADVGLALGTLYGNVFSQTTICRFEALQLSFKNMCKLKPLLNKWLEEAD

In this data set the parent is B1. The experiment in a line: abundance fitness (aPCA) (normalised: wild type 0, dead -1); higher = more abundant; growth selection in yeast, the domain comes from the species named. The note with it: Homo sapiens.
Turning to DDLEQFAKQFKQRRIKLGFTQADVGLALGTLYGNVFSQTTICRFEALQLSVKNMCKLKPLLNKWLEEAD, the abundance fitness amounted to 0.013 ± 0.063.
Then DDLEQFAKQFKQRRIKLGFTQADVGLALGTLYGNVFSQTTICRFEALQLSGKNMCKLKPLLNKWLEEAD, with -0.136 ± 0.088; and DDLEQFAKQFKQRRIKLGFTQADVGLALGTLYGNVFSQTTICRFEALQLSYKNMCKLKPLLNKWLEEAD, with -0.247 ± 0.18.
Then DDLEQFAKQFKQRRIKLGFTQADVGLALGTLYGNVFSQTTICRFEALQLSWKNMCKLKPLLNKWLEEAD, with -0.567 ± 0.19; and DDLEQFAKQFKQRRIKLGFTQADVGLALGTLYGNVFSQTTICRFEALQLSQKNMCKLKPLLNKWLEEAD, with 0.142 ± 0.11; and DDLEQFAKQFKQRRIKLGFTQADVGLALGTLYGNVFSQTTICRFEALQLSEKNMCKLKPLLNKWLEEAD, with 0.115 ± 0.11.
DDLEQFAKQFKQRRIKLGFTQADVGLALGTLYGNVFSQTTICRFEALQLSPKNMCKLKPLLNKWLEEAD: the abundance fitness was found to be 0.064 ± 0.06.
Next, DDLEQFAKQFKQRRIKLGFTQADVGLALGTLYGNVFSQTTICRFEALQLSAKNMCKLKPLLNKWLEEAD: -0.081 ± 0.081; DDLEQFAKQFKQRRIKLGFTQADVGLALGTLYGNVFSQTTICRFEALQLSTKNMCKLKPLLNKWLEEAD: 0.061 ± 0.1.
For the variant DDLEQFAKQFKQRRIKLGFTQADVGLALGTLYGNVFSQTTICRFEALQLSNKNMCKLKPLLNKWLEEAD, the abundance fitness is -0.002 ± 0.15.
Next, DDLEQFAKQFKQRRIKLGFTQADVGLALGTLYGNVFSQTTICRFEALQLSRKNMCKLKPLLNKWLEEAD: 0.035 ± 0.065; DDLEQFAKQFKQRRIKLGFTQADVGLALGTLYGNVFSQTTICRFEALQLSKKNMCKLKPLLNKWLEEAD: 0.132 ± 0.13.
Next, DDLEQFAKQFKQRRIKLGFTQADVGLALGTLYGNVFSQTTICRFEALQLSIKNMCKLKPLLNKWLEEAD: -0.51 ± 0.26; DDLEQFAKQFKQRRIKLGFTQADVGLALGTLYGNVFSQTTICRFEALQLSHKNMCKLKPLLNKWLEEAD: 0.051 ± 0.18.
Next, DDLEQFAKQFKQRRIKLGFTQADVGLALGTLYGNVFSQTTICRFEALQLSSKNMCKLKPLLNKWLEEAD: -0.002 ± 0.069; DDLEQFAKQFKQRRIKLGFTQADVGLALGTLYGNVFSQTTICRFEALQLSCKNMCKLKPLLNKWLEEAD: -0.416 ± 0.13.
On to DDLEQFAKQFKQRRIKLGFTQADVGLALGTLYGNVFSQTTICRFEALQLSMKNMCKLKPLLNKWLEEAD, for which the abundance fitness was -0.231 ± 0.11.
On to DDLEQFAKQFKQRRIKLGFTQADVGLALGTLYGNVFSQTTICRFEALQLSDKNMCKLKPLLNKWLEEAD, for which the abundance fitness was -0.14 ± 0.12.
Turning to DDLEQFAKQFKQRRIKLGFTQADVGLALGTLYGNVFSQTTICRFEALQLSFNNMCKLKPLLNKWLEEAD, the abundance fitness was -0.093 ± 0.2.
As to DDLEQFAKQFKQRRIKLGFTQADVGLALGTLYGNVFSQTTICRFEALQYSFKNMCKLKPLLNKWLEEAD, the abundance fitness is -0.582 ± 0.26.
Then DDLEQFAKQFKQRRIKLGFTQADVGLALGTLYGNVFSQTTICRFEALQVSFKNMCKLKPLLNKWLEEAD, with -0.934 ± 0.16; and DDLEQFAKQFKQRRIKLGFTQADVGLALGTLYGNVFSQTTICRFEALQISFKNMCKLKPLLNKWLEEAD, with -1.01 ± 0.43; and DDLEQFAKQFKQRRIKLGFTQADVGLALGTLYGNVFSQTTICRFEALQASFKNMCKLKPLLNKWLEEAD, with -0.441 ± 0.15.
As for DDLEQFAKQFKQRRIKLGFTQADVGLALGTLYGNVFSQTTICRFEALQMSFKNMCKLKPLLNKWLEEAD, the abundance fitness is -0.078 ± 0.074.
Turning to DDLEQFAKQFKQRRIKLGFTQADVGLALGTLYGNVFSQTTICRFEALQTSFKNMCKLKPLLNKWLEEAD, the abundance fitness was -0.846 ± 0.17.
DDLEQFAKQFKQRRIKLGFTQADVGLALGTLYGNVFSQTTICRFEALQPSFKNMCKLKPLLNKWLEEAD: the abundance fitness was -0.65 ± 0.18.
In the case of DDLEQFAKQFKQRRIKLGFTQADVGLALGTLYGNVFSQTTICRFEALQCSFKNMCKLKPLLNKWLEEAD, the abundance fitness was -0.873 ± 0.29.
Next, DDLEQFAKQFKQRRIKLGFTQADVGLALGTLYGNVFSQTTICRFEALQNSFKNMCKLKPLLNKWLEEAD: -0.594 ± 0.34; DDLEQFAKQFKQRRIKLGFTQADVGLALGTLYGNVFSQTTICRFEALQHSFKNMCKLKPLLNKWLEEAD: -0.697 ± 0.18.
As for DDLEQFAKQFKQRRIKLGFTQADVGLALGTLYGNVFSQTTICRFEALQWSFKNMCKLKPLLNKWLEEAD, the abundance fitness was -0.021 ± 0.17.
Then DDLEQFAKQFKQRRIKLGFTQADVGLALGTLYGNVFSQTTICRFEALQSSFKNMCKLKPLLNKWLEEAD, with -0.649 ± 0.11.
Then DDLEQFAKQFKQRRIKLGFTQADVGLALGTLYGNVFSQTTICRFEALQKSFKNMCKLKPLLNKWLEEAD, with -0.548 ± 0.13.
Then DDLEQFAKQFKQRRIKLGFTQADVGLALGTLYGNVFSQTTICRFEALQRSFKNMCKLKPLLNKWLEEAD, with -0.385 ± 0.092.
Consider DDLEQFAKQFKQRRIKLGFTQADVGLALGTLYGNVFSQTTICRFEALQESFKNMCKLKPLLNKWLEEAD, for which the abundance fitness was -0.573 ± 0.087.
Then DDLEQFAKQFKQRRIKLGFTQADVGLALGTLYGNVFSQTTICRFEALQFSFKNMCKLKPLLNKWLEEAD, with -0.865 ± 0.4; and DDLEQFAKQFKQRRIKLGFTQADVGLALGTLYGNVFSQTTICRFEALQLDFKNMCKLKPLLNKWLEEAD, with -0.074 ± 0.14; and DDLEQFAKQFKQRRIKLGFTQADVGLALGTLYGNVFSQTTICRFEALQLQFKNMCKLKPLLNKWLEEAD, with 0.161 ± 0.13.
On to DDLEQFAKQFKQRRIKLGFTQADVGLALGTLYGNVFSQTTICRFEALQLEFKNMCKLKPLLNKWLEEAD, for which the abundance fitness is -0.18 ± 0.16.
Then DDLEQFAKQFKQRRIKLGFTQADVGLALGTLYGNVFSQTTICRFEALQLFFKNMCKLKPLLNKWLEEAD, with -0.711 ± 0.32; and DDLEQFAKQFKQRRIKLGFTQADVGLALGTLYGNVFSQTTICRFEALQLCFKNMCKLKPLLNKWLEEAD, with -0.786 ± 0.26; and DDLEQFAKQFKQRRIKLGFTQADVGLALGTLYGNVFSQTTICRFEALQLPFKNMCKLKPLLNKWLEEAD, with 0.034 ± 0.079.
Then DDLEQFAKQFKQRRIKLGFTQADVGLALGTLYGNVFSQTTICRFEALQLKFKNMCKLKPLLNKWLEEAD, with -0.302 ± 0.16; and DDLEQFAKQFKQRRIKLGFTQADVGLALGTLYGNVFSQTTICRFEALQLNFKNMCKLKPLLNKWLEEAD, with -0.922 ± 0.44.
Next, DDLEQFAKQFKQRRIKLGFTQADVGLALGTLYGNVFSQTTICRFEALQLVFKNMCKLKPLLNKWLEEAD: -1.04 ± 0.3.
For the variant DDLEQFAKQFKQRRIKLGFTQADVGLALGTLYGNVFSQTTICRFEALQLLFKNMCKLKPLLNKWLEEAD, the abundance fitness was -0.833 ± 0.21.
On to DDLEQFAKQFKQRRIKLGFTQADVGLALGTLYGNVFSQTTICRFEALQLGFKNMCKLKPLLNKWLEEAD, for which the abundance fitness is -0.561 ± 0.12.
Then DDLEQFAKQFKQRRIKLGFTQADVGLALGTLYGNVFSQTTICRFEALQLAFKNMCKLKPLLNKWLEEAD, with -0.751 ± 0.25; and DDLEQFAKQFKQRRIKLGFTQADVGLALGTLYGNVFSQTTICRFEAVQLSFKNMCKLKPLLNKWLEEAD, with -0.039 ± 0.065; and DDLEQFAKQFKQRRIKLGFTQADVGLALGTLYGNVFSQTTICRFEATQLSFKNMCKLKPLLNKWLEEAD, with -0.602 ± 0.17.
Regarding DDLEQFAKQFKQRRIKLGFTQADVGLALGTLYGNVFSQTTICRFEAYQLSFKNMCKLKPLLNKWLEEAD, the abundance fitness was -0.131 ± 0.2.
Then DDLEQFAKQFKQRRIKLGFTQADVGLALGTLYGNVFSQTTICRFEALQLSFKLMCKLKPLLNKWLEEAD, with -0.148 ± 0.059; and DDLEQFAKQFKQRRIKLGFTQADVGLALGTLYGNVFSQTTICRFEALQLSFKAMCKLKPLLNKWLEEAD, with -0.035 ± 0.04; and DDLEQFAKQFKQRRIKLGFTQADVGLALGTLYGNVFSQTTICRFEALQLSFKSMCKLKPLLNKWLEEAD, with -0.257 ± 0.069.
Next, DDLEQFAKQFKQRRIKLGFTQADVGLALGTLYGNVFSQTTICRFEALQLSFKGMCKLKPLLNKWLEEAD: -0.148 ± 0.04; DDLEQFAKQFKQRRIKLGFTQADVGLALGTLYGNVFSQTTICRFEALQLSFKCMCKLKPLLNKWLEEAD: -0.255 ± 0.15; DDLEQFAKQFKQRRIKLGFTQADVGLALGTLYGNVFSQTTICRFEALQLSFKVMCKLKPLLNKWLEEAD: -0.306 ± 0.093.
Then DDLEQFAKQFKQRRIKLGFTQADVGLALGTLYGNVFSQTTICRFEALQLSFKWMCKLKPLLNKWLEEAD, with -0.102 ± 0.046; and DDLEQFAKQFKQRRIKLGFTQADVGLALGTLYGNVFSQTTICRFEALQLSFKQMCKLKPLLNKWLEEAD, with -0.044 ± 0.074.
For the variant DDLEQFAKQFKQRRIKLGFTQADVGLALGTLYGNVFSQTTICRFEALQLSFKFMCKLKPLLNKWLEEAD, the abundance fitness was -0.513 ± 0.23.
DDLEQFAKQFKQRRIKLGFTQADVGLALGTLYGNVFSQTTICRFEALQLSFKIMCKLKPLLNKWLEEAD: the abundance fitness was -0.167 ± 0.18.
Consider DDLEQFAKQFKQRRIKLGFTQADVGLALGTLYGNVFSQTTICRFEALQLSFKDMCKLKPLLNKWLEEAD, for which the abundance fitness was 0.012 ± 0.16.
With DDLEQFAKQFKQRRIKLGFTQADVGLALGTLYGNVFSQTTICRFEALQLSFKHMCKLKPLLNKWLEEAD, the abundance fitness is -0.09 ± 0.14.
Consider DDLEQFAKQFKQRRIKLGFTQADVGLALGTLYGNVFSQTTICRFEALQLSFKRMCKLKPLLNKWLEEAD, for which the abundance fitness is -0.037 ± 0.052.
Take DDLEQFAKQFKQRRIKLGFTQADVGLALGTLYGNVFSQTTICRFEALQLSFKTMCKLKPLLNKWLEEAD: the abundance fitness was found to be 0.051 ± 0.083.
With DDLEQFAKQFKQRRIKLGFTQADVGLALGTLYGNVFSQTTICRFEALQLSFKPMCKLKPLLNKWLEEAD, the abundance fitness is -0.613 ± 0.12.
For the variant DDLEQFAKQFKQRRIKLGFTQADVGLALGTLYGNVFSQTTICRFEALQLSFKMMCKLKPLLNKWLEEAD, the abundance fitness stood at 0.114 ± 0.069.
Then DDLEQFAKQFKQRRIKLGFTQADVGLALGTLYGNVFSQTTICRFEALQLSFKEMCKLKPLLNKWLEEAD, with 0.049 ± 0.1; and DDLEQFAKQFKQRRIKLGFTQADVGLALGTLYGNVFSQTTICRFEALMLSFKNMCKLKPLLNKWLEEAD, with -0.599 ± 0.19.
As to DDLEQFAKQFKQRRIKLGFTQADVGLALGTLYGNVFSQTTICRFEALWLSFKNMCKLKPLLNKWLEEAD, the abundance fitness was -0.453 ± 0.22.
For the variant DDLEQFAKQFKQRRIKLGFTQADVGLALGTLYGNVFSQTTICRFEALGLSFKNMCKLKPLLNKWLEEAD, the abundance fitness is -0.264 ± 0.19.
For DDLEQFAKQFKQRRIKLGFTQADVGLALGTLYGNVFSQTTICRFEALALSFKNMCKLKPLLNKWLEEAD, the abundance fitness was -0.612 ± 0.24.
Next, DDLEQFAKQFKQRRIKLGFTQADVGLALGTLYGNVFSQTTICRFEALKLSFKNMCKLKPLLNKWLEEAD: -0.177 ± 0.2.
Then DDLEQFAKQFKQRRIKLGFTQADVGLALGTLYGNVFSQTTICRFEALRLSFKNMCKLKPLLNKWLEEAD, with -0.416 ± 0.13; and DDLEQFAKQFKQRRIKLGFTQADVGLALGTLYGNVFSQTTICRFEALLLSFKNMCKLKPLLNKWLEEAD, with -0.375 ± 0.21; and DDLEQFAKQFKQRRIKLGFTQADVGLALGTLYGNVFSQTTICRFEALTLSFKNMCKLKPLLNKWLEEAD, with -0.187 ± 0.24.
For the variant DDLEQFAKQFKQRRIKLGFTQADVGLALGTLYGNVFSQTTICRFEALILSFKNMCKLKPLLNKWLEEAD, the abundance fitness is -0.835 ± 0.36.
Next, DDLEQFAKQFKQRRIKLGFTQADVGLALGTLYGNVFSQTTICRFEALELSFKNMCKLKPLLNKWLEEAD: -0.088 ± 0.18; DDLEQFAKQFKQRRIKLGFTQADVGLALGTLYGNVFSQTTICRFEALSLSFKNMCKLKPLLNKWLEEAD: -0.205 ± 0.098.
